Experimental data taken from patent publication US12715905B2, “Methods of characterizing and purifying VEGF receptor fusion protein” (Regeneron Pharmaceuticals, Inc., priority 2023, dated 2026).
Where a SMILES comes first, the peptide text is derived from it. [ ]: non-standard residue; d: D form. The star is where a group is joined. Sta = CC(C)C[C@H](N)[C@@H](O)CC(=O)O; Isovaleryl = CC(C)CC(=O)*

Columns and labels:
[1] = Mass spectrometry analysis of Y92/L93 clipping in stability lots; format: physicochemical; settings: high concentration (114.3 mg/mL) lot vs low concentration lots, accelerated stability
Experimental: The analysis was performed by denaturing SEC-MS, which can provide (partial) liquid chromatography separation between the intact receptor domain and NR1 species (with Fc removed) for the successful detection of the low levels of NR1 species. The DS and DSI sample from lots A and B were analyzed using a modified mass analysis (samples 1-7 are representative of both DS and DSI samples from both the lots). The modification made is possible to differentiate the peaks of the receptor domain of aflibercept and truncated aflibercept.
Mass spectrometry analysis further confirmed (3.4×) higher levels of Y92/L93 clipping for the unexpected aflibercept high concentration lot when compared to […] clipping observed for low concentration lots (FIG. 18). Increased NR1 due to cathepsin D cleavage at Y92/L93 of aflibercept was linked to increased aggregate formation (FIG. 19 and FIG. 20).

[2] = system: cathepsin D; experiment: Stability observation in presence and absence of inhibitor pepstatin A (SE-UPLC HMW, CE-SDS NR1); format: physicochemical, Chinese hamster
Experimental: Formulated Drug Substance with high (pre-optimization) and low (post-optimization) cathepsin D were blended to achieve various levels of cathD (FIG. 35B). These mixtures were prepared to compare to cathepsin D levels below, at, and above the highest known levels that were observed post-optimized IVT and had acceptable stability performance. The blended material was put on 25° C. stability observation in both the presence and absence of the inhibitor pepstatin A (FIG. 35A).
The Drug Substance Intermediate from two Lots was placed on stability observation at 25° C. in the presence (open triangle) and absence (closed triangle) of the inhibitor pepstatin A for 6 months (FIG. 36).
Samples were placed on 25° C. and 5° C. stability observation in the presence and absence of cathepsin D inhibitor. HMW formation was analyzed by SE-UPLC and NR1 formation was analyzed by CE-SDS.

[3] = system: cathepsin D; experiment: Impact of pH on NR-1 band formation in DSI incubated at 37° C.; format: physicochemical, Chinese hamster
Experimental: Testing of DSI samples from both facilities A and B for aflibercept production also show similar results.
The impact of pH is so significant that use of different buffers can also show a difference in the Y92L93 clipping observed during the production of aflibercept. For example, citric acid was employed at facility B to achieve a pH of 6.1 and sodium citrate was employed at facility A to achieve a pH of 6.2, despite other conditions remaining the same (i.e., incubation of DSI at 37° C. for 12 days, intermediate time point taken at 3rd and 6th day). While the difference in the pH is 0.1, the effect through cathepsin D based clipping is notable over time (data not shown).
All samples were incubated at 37° C. for 12 days, intermediate time point taken at 3rd and 6th day.
Target sequence in this assay (G3I4W7 65-408 limits assumed): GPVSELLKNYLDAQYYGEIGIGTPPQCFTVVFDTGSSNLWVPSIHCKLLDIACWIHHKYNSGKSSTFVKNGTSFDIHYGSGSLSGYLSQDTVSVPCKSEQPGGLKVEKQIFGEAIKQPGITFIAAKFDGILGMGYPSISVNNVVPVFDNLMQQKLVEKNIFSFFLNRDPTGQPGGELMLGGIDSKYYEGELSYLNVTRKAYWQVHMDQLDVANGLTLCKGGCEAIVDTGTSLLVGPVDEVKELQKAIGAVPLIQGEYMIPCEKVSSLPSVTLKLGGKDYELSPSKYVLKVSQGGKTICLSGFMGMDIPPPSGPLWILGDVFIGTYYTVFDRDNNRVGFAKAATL

[4] = Stability study of aflibercept lots at 5° C. and 25° C. (CE-SDS, SE-UPLC); format: physicochemical
Experimental: This study investigated how a residual HCP can piggy-back through the aflibercept DSI manufacturing process.
Drug substance intermediate (DSI) lots containing aflibercept at two different concentrations (40 mg/ml and 114.3 mg/ml) were evaluated at 5° C. and 25° C.
Using the modified SEC purification, the high concentration DSI lot was purified downstream using SEC. […] (as mentioned in Example 10).
An earlier cut in time for the eluting peak was implemented for the SEC step for the higher concentration DSI lots (FIG. 28) resulting in increased clearance and subsequently lower levels of cathepsin D at FDS (FIG. 29). […] Accelerated stability (25′C for 6 months) was investigated. The cumulative increase in HMW (FIG. 33A) and R1 (FIG. 33B) was represented over that 6 months by calculation of the slope. […] The DSI was analyzed for stability at 25° C. for 6 months. The rate of NR1 species was calculated from T0 to T6 months and plotted against the cathepsin D value obtained by ELISA (FIG. 34A), Activity Assay (FIG. 34B) and Mass Spectrometry (FIG. 34C).

[5] = molecular target: cathepsin D; experiment: Octet HTX interaction analysis of aflibercept and cathepsin D; format: binding, Chinese hamster
Experimental: FIG. 31 […], wherein cathepsin D was immobilized to the biosensor, while VEGF-Trap was the analyte (A), according to an exemplary embodiment.
Interaction analysis was carried out using OCTET HTX sensorgram.
Since cathepsin D can “piggy back” onto aflibercept during purification of aflibercept, in order to reduce the interactions, use of surfactants was implemented.
Target sequence in this assay (G3I4W7 entry or part of it F138E): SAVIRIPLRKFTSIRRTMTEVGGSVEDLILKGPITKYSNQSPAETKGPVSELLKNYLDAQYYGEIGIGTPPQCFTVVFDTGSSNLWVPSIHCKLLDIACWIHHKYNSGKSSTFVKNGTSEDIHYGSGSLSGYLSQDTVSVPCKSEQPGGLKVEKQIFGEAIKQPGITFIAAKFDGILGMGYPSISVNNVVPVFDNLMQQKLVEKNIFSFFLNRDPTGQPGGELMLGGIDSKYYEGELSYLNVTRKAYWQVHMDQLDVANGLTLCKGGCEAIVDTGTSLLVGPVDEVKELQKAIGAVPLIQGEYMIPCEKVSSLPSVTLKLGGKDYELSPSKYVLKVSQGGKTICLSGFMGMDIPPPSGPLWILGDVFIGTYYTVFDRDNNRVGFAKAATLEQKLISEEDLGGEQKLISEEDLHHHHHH

[6] = system: cathepsin D; experiment: Cathepsin D spike-in into aflibercept DS, Y92L93 clipping / NR-1 band; format: physicochemical, Chinese hamster
Experimental: Production of the Y92L93 clipping was attempted using cathepsin D. To a sample of aflibercept DS, cathepsin D was added and incubated at 37° C. at pH 6.1. Different concentrations of cathepsin D were evaluated, including 1 ppm, 2 ppm, 5 ppm, and 10 ppm.
Since the failure of cathepsin D to affect the truncation could be due to reaction conditions, the experiment was repeated at a lower pH since cathepsin D needs to be activated by lower pH for conformational switch to mature cathepsin D. Cathepsin-D is an aspartic protease that depends critically on protonation of its active site Asp residue. Along with Asp-protonation, lower pH also leads to conformational switch in mature cathepsin-D. See Briozzo P et al. (1988). Cancer Research. 48 (13): 3688-92.
To test the DS samples with the presence of activated cathepsin D, to a sample from DS at t=0, 100 ppm acidified cathepsin D was added at 37° C. and incubated for 5 hours.
The clipping activity was also observed at neutral condition when acidified […]) was added.
Target sequence in this assay (as listed by the source): as the sequence (G3I4W7 65-408 limits assumed) above

[7] = system: cathepsin D; experiment: Protease inhibitor confirmation study: pepstatin A added to DSI samples, NR-1 band and Y/L clipping; format: biochemical, Chinese hamster; settings: DSI samples from both facilities, pepstatin A added at 37° C., assessed at day 3 and day 5
Experimental: Once cathepsin D was identified to be a potential reason for the cleavage of aflibercept, a cathepsin D inhibitor was used to confirm the finding. AEBSF and Aprotinin bovine lung (serine protease inhibitors), E64 and Leupeptin hemisulfate (cysteine protease inhibitors) and pepstatin A (an aspartic protease inhibitor) were evaluated for their ability to inhibit activity of cathepsin D.
To the samples from lots from both the facilities containing DSI at t=0, pepstatin A was added at 37° C. and % of NR-1 band formed was assessed at day 3 and day 5.

[8] = DSI from two lots, 25° C., 6 months, pepstatin A present vs absent

aflibercept
levels of Y92/L93 clipping, high concentration lot compared to low concentration lots [1]: 3.4 × | formation of NR1 ([2]; FDS, 5° C., inactive cathepsin D (inhibitor and/or low temperature), up to 18 months): no formation of NR1 | NR-1 band formation ([3]; DSI sample, pH 4.5 compared to pH 6.3): significant NR-1 band | NR-1 band formation ([3]; pH 6.45): Effectively no NR-1 band is formed | 92Y93L clipping ([3]; pH increased to 6.45 by adding sodium citrate, 37° C. for 12 days): stopped the 92Y93L clipping | rates of aggregation and fragmentation ([4]; 114.3 mg/mL formulated drug substance (FDS) lot, accelerated stability 25° C. for 6 months): increased rates of aggregation and fragmentation | fragmentation ([4]; 5° C. condition, through the 12-month time point): absence of fragmentation | LMW levels ([4]; FDS lots after modified SEC purification (earlier cut), 25° C. at 3 months): in line with comparators | KD of aflibercept-cathepsin D interaction, change ([5]; about 0.003% PS20 (polysorbate 20)): about 4 fold | binding to Cathepsin D ([5]; range of VEGF-Trap concentration): concentration dependent binding | interaction between aflibercept and cathepsin D ([5]; range of buffer pH): increased with reducing buffer pH | Y/L clipping ([6]; DS at t=0, 100 ppm acidified cathepsin D, 37° C., 5 hours): led to Y/L clipping of aflibercept | NR-1 band formation and Y/L cleavage ([6]; aflibercept DS, 0.5-20 ppm acidified cathepsin D, neutral condition, 7 days at 37° C.): correlation between spiked-in cathepsin D and NR-1 band formation, and Y/L cleavage | Y/L clipping ([6]; aflibercept DS, 10 ppm Cathepsin D spiked in, pH 6.1, 37° C., 8 days): Negligible | Y/L clipping ([6]; aflibercept DS, 100 ppm Cathepsin D spiked in, pH 6.1, 37° C., 8 days): < 1%

CC(C)CC(=O)N[C@H](C(=O)N[C@H](C(=O)N[C@@H](CC(C)C)[C@@H](O)CC(=O)N[C@@H](C)C(=O)N[C@@H](CC(C)C)[C@@H](O)CC(=O)O)C(C)C)C(C)C [pepstatin A] (Isovaleryl-VV[Sta]A[Sta]-OH)
NR-1 band formation [7]: NR-1 band increase stopped | Y/L clipping [7]: Y/L clipping ceased | HMW formation (SE-UPLC) [2, 8]: reduced HMW formation | NR1 formation (CE-SDS) [2, 8]: reduced NR1 formation
